The source of these data is patent US6010856, “Assay systems and methods for measuring P38 map kinase, and modulators thereof” (The Scripps Research Institute).

The target in series [1] is MEF2C phosphorylated by p38 (UniProt Q06413-3 Q06413-3:1-441). Put plainly: EMSA; p38 phosphorylation did not reduce binding but decreased complex mobility. As to conditions: tags: in vitro translated then treated with recombinant p38; label: 32P. From the text:
(§1) Members of the MEF2 family bind to conserved A/T-rich DNA sequences—CTA[A/T]_4TAG/A—found in the regulatory regions of many muscle-specific genes (Y. -T. Yu et al., Genes and Develop. 6, 1783 (1992). Binding of MEF2C to the consensus site can be detected by electrophoretic mobility-shift analysis (EMSA) (J. F. Martin et al., Proc. Natl. Acad. Sci. USA, 90, 5282 (1993); J. C. McDermott et al., Mol. Cell. Biol. 13, 2564 (1994); D. Leifer et al., Proc. Natl. Acad. Sci. USA 90, 11546 (1993)). To test whether the phosphorylation of MEF2C alters MEF2C binding to its consensus DNA binding site the mobility of the MEF2C-DNA probe complex formed by MEF2C before and after its treatment with wtp38 was compared (FIG. 3).
(§2) Binding of MEF2C to oligonucleotides containing the MEF2 consensus site determined by electrophoretic mobility-shift assay (EMSA). The oligonucleotide probe was double-stranded ^32P-labeled oligonucleotide containing the MEF2 consensus binding site (Oligonucleotides sequence, MEF2C: GATCGCT CTAAAAATAACCCTGTCG (SEQ ID NO: 1); MEF2Cmut: […] (SEQ ID NO: 2)) and the positions of free probe (F) and of bound probe (B_1 and B_2) are indicated by arrows. […]

Series [2] deals with MEF2C (UniProt Q06413-3 Q06413-3:1-441). Nature of the series: EMSA; complexes B1 and B2. As to conditions: tags: in vitro translated from MEF2C cDNA; label: 32P.
Sequence of MEF2C (Q06413 other isoform, or with tags, fused parts or gaps): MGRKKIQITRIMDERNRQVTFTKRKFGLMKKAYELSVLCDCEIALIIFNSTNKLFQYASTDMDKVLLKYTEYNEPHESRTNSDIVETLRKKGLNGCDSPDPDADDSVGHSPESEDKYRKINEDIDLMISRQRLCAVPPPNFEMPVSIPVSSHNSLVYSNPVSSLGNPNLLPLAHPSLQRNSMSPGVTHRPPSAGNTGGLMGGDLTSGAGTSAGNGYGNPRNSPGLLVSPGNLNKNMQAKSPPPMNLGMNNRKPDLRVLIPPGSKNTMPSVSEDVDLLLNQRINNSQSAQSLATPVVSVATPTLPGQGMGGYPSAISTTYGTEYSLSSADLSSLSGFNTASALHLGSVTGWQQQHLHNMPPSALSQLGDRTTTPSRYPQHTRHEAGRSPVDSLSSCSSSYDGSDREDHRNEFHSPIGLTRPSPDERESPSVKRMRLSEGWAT
Description: as §1, §2
Background: In EMSA bound probe runs differently from free probe, usually more slowly.

Sequence of MEF2C phosphorylated by p38 (Q06413 other isoform, or with tags, fused parts or gaps): as above

B1: MEF2C consensus site probe (dsDNA)
DNA 1: GATCGCTCTAAAAATAACCCTGTCG
DNA 2: CGACAGGGTTATTTTTAGAGCGATC
With B1, the binding result in series [1] and in series [2] was “binds” each time.
